The values that follow come from paper PMC2757703.

This series deals with 40S small ribosomal subunit (rabbit reticulocyte lysate) (rabbit). Description: sucrose density gradient. To be noted: EMSA: 20 mM Tris pH 7.6, 50 mM KCl, 2.5 mM MgOAc, 0.05% NP40, 1 mM DTT, 1 ug/uL yeast tRNA, 30 C 20 min, gradients: 20 mM Tris-HCl pH 7.5, 100 mM KOAc. For orientation: A gel shift assay detects complexes by their altered migration in electrophoresis.

For CrPV IRES RNA, the binding signal (% of labeled RNA bound to small subunit) was > 50.

GLV IRES RNA showed a binding signal (scale: % of labeled RNA in small-subunit fractions) of 10.
